The target of the data set is RXRα S427F (human, UniProt P19793 1-462, S427F). Kind of data set: EMSA; no ligand; binds as well as WT; two shifts; competed by 5x and 25x unlabeled DR1; 10 mM Tris HCl pH 8.0, 150 mM KCl, 0.5 mM EDTA, 0.1% Triton X-100, 12.5% glycerol, 0.2 mM DTT, 1 ug poly(dI-dC), 100 pmol probe in 20 uL; 10 min RT then 5 min 37 C; 5% PAGE in 0.5x TBE at 4 C. Conditions: protein: recombinant; chain copies: 2; blunt. Background: Mobility shift assays separate free from complexed probe on a gel.
RXRα S427F, sequence (P19793 whole entry S427F): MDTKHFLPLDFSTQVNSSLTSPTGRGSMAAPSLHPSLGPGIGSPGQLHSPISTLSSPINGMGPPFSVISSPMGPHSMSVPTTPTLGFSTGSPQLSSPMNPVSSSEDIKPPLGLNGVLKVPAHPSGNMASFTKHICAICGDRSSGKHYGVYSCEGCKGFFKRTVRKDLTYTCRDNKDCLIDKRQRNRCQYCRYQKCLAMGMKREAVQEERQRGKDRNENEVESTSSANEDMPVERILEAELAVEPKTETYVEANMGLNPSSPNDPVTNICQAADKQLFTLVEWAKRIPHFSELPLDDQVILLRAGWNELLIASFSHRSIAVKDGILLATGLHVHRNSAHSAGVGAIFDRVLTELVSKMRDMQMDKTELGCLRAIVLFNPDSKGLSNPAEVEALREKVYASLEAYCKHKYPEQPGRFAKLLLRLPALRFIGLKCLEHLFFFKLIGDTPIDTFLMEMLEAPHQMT

One molecule from PMC8597827, “The effect of S427F mutation on RXRα activity depends on its dimeric partner†” can be followed below.

B1: DR1 (dsDNA)
DNA 1: TCGAGGGTAGGGGTCAGAGGTCACTCGTCGA
DNA 2: TCGACGAGTGACCTCTGACCCCTACCCTCGA
As to B1, the binding result was “binds”.
